For 167 variants, self-cleavage results are on record in the RNAGym collection of RNA variant scans (doi:10.7554/elife.90254).

First the molecules themselves.
B1: OR4K15 (parent)
chain: GUUAACGGUCAUAGGCCAUGGAAACUAGGAGCACCAUUUCGCUGCCAGUGAAGAAAUGAACAAAGAAAAUCUGGGCCAGGCAGGCAUCAAAAGAAAUAGUCUUGCGCUCAACCAGAAAGUCUGUAAUCAUUUUAAGGGUA

Variants of B1 are the subject of this data set. In words: self-cleavage, relative activity (ratio to wild type); higher = more cleavage; in vitro, sequencing; the parent is a self-cleaving ribozyme.
As for A66U U131C, the self-cleavage stood at 0.84. In the case of C32U A67G it was 1.67; in that of A69G A116G, 0.56. In the case of A11U A116G it was 1; in that of A5C U132C, 1.97.

On to A67U U131C, for which the self-cleavage is 2.18.

Take A92U: the self-cleavage stood at 1.71. As to G14A A118G, the self-cleavage came out at 0.59. Regarding C16G A59U, the self-cleavage worked out at 1.17. For U72G A96G, the self-cleavage is 0.07. In the case of A18G A134G it was 1.8; in that of A63G U122C, 1.16. In the case of A92G A116G it was 0.44; in that of C42U, 1.44; in that of A59U U72A, 0.14. Consider A117G U124C, for which the self-cleavage amounted to 0.69. As for A66U A117G, the self-cleavage was found to be 1.44. In the case of G14A U72C, the self-cleavage came to 0.22. In the case of A78G U127C, the self-cleavage is 0.22. For A78G A90G, the self-cleavage stood at 0.24. With A51U U130C, the self-cleavage stood at 1.62. In the case of C35U A96G it was 0.88; in that of C113G, 0.01. With U87C U103G, the self-cleavage turned out to be 0.01. Consider U39C C121U, for which the self-cleavage was found to be 2.87. As to C6A A68G, the self-cleavage amounted to 1.14. In the case of U103C U120A it was 1.55; in that of U9G, 0.92. On to G74A U87A, for which the self-cleavage came out at 0.22. In the case of U87G A126C it was 0.12; in that of G74A C76U, 0.11; in that of U39C A125G, 0.66. In the case of A4G A78U it was 0.63; in that of A69G A91G, 1.21.

Regarding A5G C88U, the self-cleavage worked out at 1.02. Turning to A111G U127A, the self-cleavage was 0.01.

With A111G U127G, the self-cleavage amounted to 0.02. On to A59G C121A, for which the self-cleavage was 2.81. In the case of A92U U120C it was 1; in that of G41C A86C, 0.81; in that of U49C A90G, 0.94. Take U122G A129U: the self-cleavage came to 1.75.

Regarding G1A, the self-cleavage was found to be 1.55.

On to G7A A78G, for which the self-cleavage worked out at 0.19. In the case of A69G A135U it was 1.45; in that of A60C A95G, 1.47; in that of A114C A125G, 0.01. In the case of U38C C121U it was 1.86; in that of A36C U130C, 2.1; in that of A90G A96G, 1.25. In the case of G29A A30G it was 1.16; in that of U37C C46U, 1.33; in that of G93U, 1.83. With A67G A90U, the self-cleavage was 1.13. In the case of C71U A135C it was 0.42; in that of A30G C45U, 1.06. As to C40U U132A, the self-cleavage came out at 1.27. In the case of A11G U120C it was 0.35; in that of G73A C121G, 0.45. In the case of A59G A82U it was 0.34. In the case of G50U it was 1.11; in that of A5U A23U, 1.56. As for U124A U132C, the self-cleavage came out at 0.13. In the case of A67G U108C it was 0.02; in that of A13G U122C, 0.76; in that of A64G A118G, 0.89. In the case of A116G U132C it was 0.54.

On to A18U A86G, for which the self-cleavage turned out to be 1.01. In the case of U19C U124C it was 0.87; in that of A66G A125G, 0.25; in that of U103C A111U, 0.1. In the case of U38C A111G it was 0.02; in that of A36U U39C, 1.03; in that of C113A U120C, 0.02. For A33U U87C, the self-cleavage was 1.74.

For C16U A111U, the self-cleavage was 0.16. For the variant A36G U108A, the self-cleavage came out at 0.01. For the variant U2C A94U, the self-cleavage is 1.48. In the case of A56G G115A, the self-cleavage was 0.11. Regarding G99A, the self-cleavage was 0.56.

Regarding A82U A117C, the self-cleavage was 0.04.

Take A22U U43A: the self-cleavage turned out to be 2.1. Regarding A5C C105U, the self-cleavage worked out at 0.08. In the case of A11G U131C it was 0.79. In the case of U2C A91U it was 0.81; in that of U19A A55G, 1.79; in that of A51U A62U, 1.15. Turning to A96G A129U, the self-cleavage was found to be 1.08. In the case of U102G A116G it was 0.62. In the case of U102C U124A it was 0.97; in that of A47C A68G, 0.55; in that of A62G U132G, 0.5.

For U9C U19G, the self-cleavage is 2.03. Take G20A A27C: the self-cleavage came out at 1.93. In the case of A60C A135U it was 1.44; in that of A114U A140U, 0.1.

As to U3C C25U, the self-cleavage was 1.05. In the case of A11G A116C it was 0.1; in that of U87A, 1.65. For the variant A91C U132C, the self-cleavage was 2.49.

For the variant A54G A135U, the self-cleavage is 0.73. Consider C16G A78G, for which the self-cleavage is 0.55. Consider U19A U122C, for which the self-cleavage worked out at 0.71. In the case of A18G A68U it was 1.33; in that of A47G A114G, 0.24; in that of U72A A91U, 0.24. In the case of U122A U133A it was 1.43; in that of A36G U132A, 1.41; in that of G58U A64G, 1.2. In the case of C10U A56G it was 0.84.

As for A11U A114G, the self-cleavage is 0.61. In the case of A78G U130G, the self-cleavage came to 0. Regarding C17A A117G, the self-cleavage is 1.53. In the case of A82U G123A it was 0.19; in that of U72G A78G, 0.39; in that of A89U U108G, 0. In the case of A89U U108C it was 0.02; in that of A66G U70C, 0.75. For the variant U102C G138A, the self-cleavage is 1.82.

As to U43G, the self-cleavage is 1.7. With A64G A90G, the self-cleavage came out at 1.13. In the case of A82U U122G it was 0.28; in that of G115A U120C, 0.03.

For C35U U122C, the self-cleavage stood at 1.07. As for U19A G53A, the self-cleavage was 1.39.

As to A86G A118G, the self-cleavage turned out to be 1.45. In the case of U39C C85G it was 0.99; in that of A30G A114C, 0.07. In the case of A13G U70C it was 0.87. For the variant G15A C113U, the self-cleavage was 0.03.

In the case of U102C G106A, the self-cleavage was 0.02. As for C25U A55G, the self-cleavage worked out at 1.72. In the case of U26A U43C it was 1.45; in that of A82C A98G, 0.09; in that of U37C A78U, 0.32. A24G A114C: the self-cleavage is 0.05. In the case of A129G G137C it was 1.54; in that of G21C U108C, 0.02. In the case of A82G A91U it was 0.59; in that of A69G A89G, 0.86; in that of A5U U12A, 0.69. C77U G79U: the self-cleavage was 0.13.

As for A52U A126G, the self-cleavage was determined as 1.31.

A54G U108C: the self-cleavage came out at 0.02. Turning to A22G A96C, the self-cleavage is 1.58. In the case of A47U A82G it was 0.21; in that of A69G A78C, 0.36. In the case of U2C A90G it was 0.54; in that of C32U C45G, 1.23. In the case of C17U A22G it was 1.48; in that of A5G C128G, 0.8. Take A78U A89U: the self-cleavage came to 0.35. In the case of G75U U133A, the self-cleavage was found to be 0.15. In the case of A54G A69G it was 1.1.

In the case of A51G A126G, the self-cleavage worked out at 0.71. Turning to U2C C42U, the self-cleavage turned out to be 1.46.

Take A33G U131C: the self-cleavage stood at 0.63. For U43C A98G, the self-cleavage stood at 0.44. In the case of U43C A92G it was 1.24; in that of U3C A110G, 0.19. A68U C88U: the self-cleavage stood at 2.47. In the case of A30U A64G, the self-cleavage came to 1.56. Regarding A27U A92G, the self-cleavage was 1.83.

For the variant U49C A59G, the self-cleavage worked out at 0.7. In the case of A125U U127C it was 1.28; in that of A33C U124G, 1.02. In the case of A64U C113U it was 0.05.
